Source: the DeepSol protein solubility set

Experiment: soluble on expression in E. coli; label from the status in PepcDB or PDB records

Soluble on expression in E. coli, not soluble:
MSLKIILPVKPISQLFPIPFVMGCEGVSAAMLLQFNNYDIKATQIMSHWPKHPTNPYKGYVGHPLLVKFGHHQTIFPDAFAPFLKQYDSRIVDGTGTSLNQLEKFIDKGQPVIIYHTSLGSKPLRRVFHFDNQPTKLVSNIHVTLLIGYDDDYYYYIDPLWSRLSKFVIFPSIIPNSKQIIKIKKHTLENSYNAPGKKCIYIDNEGHHHHHH, MSLKIKCILIEDEISNEKELYFILRRYDDIEIVGMVQNTDEGIDLVKKLRPQAVFLDINVPNFNGIKLAEEIKDVDSTIAVIFVTAYDKYAVAAFEIKALDYILKPFSIARIEKAVERLKEYINVNKSMKEKLFELICEFNNMERKYIINKIPCENKGKIVLVDVNDIYFFYIKSEKTYVKLNDIIYVTSSTLNDMEKKTGFFRAHRSYLVNLNKIFEIYSWFNGTYKLIMSDYRKSEIPVSRGNVRKLKEIINIEGHHHHHH, MSLKITSISVQQKNKERYNIFIDEKYNFSVDEEVLARYQLMKGKTLTEADIEEIKQADMVRKGLNKAINFLSHRVRSEKEIRDYLRKQEMEPFAVDEILKKLADMDYINDVEFAELYTKTQIKTTLKGPRTIERELVEKGLTREIISQVMEEYASDIQLENATKQAMKIMKRNNKSAKKMLQQKIITDLIQKGYSSEVAKMAAIEATSELDVADEADILQKQVEKTIRKNKRYKPSIAKQKTITSLMQKGFSYDTIQSYLTENEISEGHHHHHH, MSLKKIILSIILISNYCYASDCFEITGKAYNIDPLILKAIAWNESKCKSGIKSKTNKNGTYDIGIMQINSSHLDLLSKFNISEDDLLNDACINISVAGYILASNIKSRGNTWDAVGAYNAGYFNTPNAVELRRQYAMKIYKTYNKLKNNEQIIDEGHHHHHH

Soluble on expression in E. coli, soluble:
MSLKIESNAFRLIEPGVFKKDTLTHDFEEKDIIVKPTKASVCHADLRYYTGNRRPEALAKKLPMALFHEGIGIVEDSKHPDFQQGDKVVIVPNIPSHLRKGTYPTTSFQDNYDENAVFMGSGFDGICQDRMVVSGDNVVKVPTDLDEDVALLAELCSVSLFPINQLDEITTETSPQVAIFGDGPVGYLAATALHYIYGIDKANLIVFGAVQEKLAAFEDFATTHLVFDFDFNQYRGVHTVFECTGGKFSESAINQAIDLIDRQGHIVLMGVTEERVGINTRDVLEKGLTFSGSSRSTKREFEQLIHAFSNKQYQQALRQLIPETYYHIHDTSDLKEAMDDTAAHKGWKKTYLQYHEGHHHHHH, MSLKIFEFVPPTDKEIEEAQLKLGFKFSPEYIEFIKSGYDLGDAPIEALEISNPPSHADIFETLANARKYFQMPSEMCPICEDNSDYYCLNQKGEVVFWSHNGTTSEKWANVTVWRNQMATEVEGHHHHHH, MSLKIGIVKHLNARPLTWGFEKNKKHEIVPENPAILKDYLLNGTIDLGLISSIECIRNDHVLNTYYGTGVCAREKVRSILFFKNKRENFPPKQILTDNGSKTSVALVRVLIYEESGLIPYVEPTDSKLIQEKISNGIGSHMLFGDNALLAKWNPEFYEVKDLAQWWNELTGLGFIFALWASKKSLKLDDLIFIQSLEYGVSHIEEIISHESRLSSTLVREYLTKELHYKITEEDQKGFLLFREKCSQLNLLEGHHHHHH, MSLKIGKIVSVNFNQFRVKISSEIRGNSVNLAGTVYYFGNIGSYLKTTNSVGEQLICEVMSIFDSDTKLDSAAYDFDSNRELLLKPIGTITRDDRFNLGVGIFPGIYSEVNVVTFEDMELILQTGKDKELSKAIHQSFFLGESKNLINYPIDISINSFFNIHSAVLGNSGSGKSNTIAHIIQEIHKKKNNSAIGSRILIFDVNGEYKNAFTGHEISPYIKVRLLKPNIEATEDGVEPFYLPHFLMNIDEWSSFLMATDATQRPFWDKVLQESYKFYMIATHEGDDRQKLINYLRFKICNLIHILQAQGDSDTAIITTAQGILYGILTLIEMDDDLQRACQQEGVLQDLHDLNASCTIDWGRNDGKLMRAVELVENRINKDTLREVMDYRASGEEYFNYEFLKQAANLTLLEEDARGNGRVREYTSTMMTRLDFFLDNPDCAFMRKSPVGATNIDQYLDWLWQSDKTVPEKTNMVIIDTSELSKDALETLTSVTSRLHFTSRKKLKGSARREKPIHLVLDEAHRYIKKDSKYLLRENIFEQIAREGRKYALYLLVSSQRPSELSETVLSQCSNFIIHRIQNEIDMKYVYAILPYFSDDFANKIKQSVPGEALIFGNCVSMPLHVRVKQAYPEPNSENCKVHEEWFKEGHHHHHH, MSLKIIIAGAGNVGTHLAKLLSREKQDIILMDDDEEKLSALSANFDLLTVTASPSSISGLKEVGVKEADLFIAVTPDESRNMTACMLATNLGAKKTVARIDNYEYLLPKNKEFFRKLGVDSLIYPEMLAAKEIVSSMRMSWVRQWWEFCGGALILIGTKMREKAEILNIPLHQLGAPDIPYHVVAIKRGTETIIPRGDDVIKLHDIVYFTTTRKYIPYIRKIAGKEDYADVRNVMIMGGSRIAVRTAQYVPDYMQVKIVDNDINRCNRLTELLDDKTMIINGDGRDMDLLIEEGLKNTEAFVALTDNSETNILACLAAKRMGVEKTVAEVENIDYIGMAESLDIGTVINKKMIAASHIYQMMLDADVSNVKCLTFANADVAEFTVPAGAKITKNLIKDLGLPKGTTIGGMIRNGEGVLVTGDTLIRPGDHVVVFCLSMMIKKIEKFFNEGHHHHHH, MSLKILVIGPSWVGDMVMSQSLYQRLKQQHPDAQIDVLAPAWCKPILERMPEVNQAIEMTIGHGAFNLLGRRAIGCELRDNRYTHAIVLPNSAKSALIPWFANIPKRTGWKGEFRYGLLNDLRPDKRVFQYMVERYVALAHPKATMLADVSLEHCPRPKLVIDAIVQQAARQRLSLVSSRPVIGLCPGAEFGPAKRWPDHYYAEVARYAIEQGFQVWLFGSAKDHSVTTQIQQALSEEQREYCANLAGETSLIEAVDLLAACHTVVSNDSGLMHVSAAVGCNIVAIYGSSSPKYTPPLTDKLAVVHTEIECRPCFKRVCPLEHLNCLNQLKPAQVIKALDKFIGKDSEGHHHHHH, MSLKISIVTSTNVYADIAKNIVGKYGSAKAIIKNSATDPHDFEPTTQDAKELSSTNIIVANGLGYDSWMNKLASSVDKKPVLVGEELMKLKKGANPHIWYSLSMPTEYVDYLVKRLSKIDSKHKAYFEANGKKYLAKINQVKALAKNSKKTDKMVFVSEPVFDYALAEAGYKIGDKDFEKAVENNTDPSPKTINRMTNDIKNKKIAFFVNNTQSSSSTVKTFVKLAKQNNIPVLNVRETIPNHTTYLNWMKENYQNLANISKEGHHHHHH, MSLKITRITVYQVDLPLEHPYWLSGGRLKFELLDATLVKLETDAGITGWGEGTPWGHTYVPAHGPGIRAGIETMAPFVLGLDPRRLLDVERAMDIALPGHLYAKSPIDMACWDIAGQAAGLPIADLMGGGSRTPRPIASSVGAKSVEETRAVIDRYRQRGYVAHSVKIGGDVERDIARIRDVEDIREPGEIVLYDVNRGWTRQQALRVMRATEDLHVMFEQPGETLDDIAAIRPLHSAPVSVDECLVTLQDAARVARDGLAEVFGIKLNRVGGLTRAARMRDIALTHGIDMFVMATGGSVLADAEALHLAATIPDHACHAVWACQDMLTVDIAGGRGPRNIDGHLHLPETPGLGVHPDEDALGDPVAVYSEGHHHHHH, MSLKKAAIITIGSELLEGLILNKNAQFLCQELKNLGYRVVKVSTVGDDLISISEEVKTLLLKVDLLILTGGLGPTQDDLTRDAVAKVLNRSLKLNEELLSKIKEKIKKYHSEIPQNIERQALVIDGAEVLDNPVGSAPGQLLTVDGKIVILLPGPPRELIPMFNALKDRLRTPDALYQVVLKYYSIPEAVLEDLLKDILYSQNIVEVATMADHVEGVRLRLTTHMKNKEYLDEMVKKILDKTGEHLYGVNDEKMEEVVVRLLKDRKKTLAVAESCTGGMLSSLVVNVPGASEVFIGGVVAYSNDLKKHILGVREDTLKKHGAVSEECVQEMTEGLKKLTGADICVSISGIAGPSGGTPEKPVGTVFIDIFEHEHITMRYNFTGDRNMIRTRSAMMALENLRKYLKGRERVEGGSHHHHHH, MSLKKAIAYMRFSSPGQMSGDSLNRQRRLIAEWLKVNSDYYLDTITYEDLGLSAFKGKHAQSGAFSEFLDAIEHGYILPGTTLLVESLDRLSREKVGEAIERLKLILNHGIDVITLCDNTVYNIDSLNEPYSLIKAILIAQRANEESEIKSSRVKLSWKKKRQDALESGTIMTASCPRWLSLDDKRTAFVPDPDRVKTIELIFKLRMERRSLNAIAKYLNDHAVKNFSGKESAWGPSVIEKLLANKALIGICVPSYRARGKGISEIAGYYPRVISDDLFYAVQEIRLAPFGISNSEGHHHHHH, MSLKKEGDATAVLIGYPSVGKSTLLNKLTGAKSEVADYDFTTLKPVPGILNYKGASIQIIDVPGIIEGAASGRGRGKEVISAVRVADLIIIVADVFNLHTIDIVKRELYEGGIRLDQKPPDVVIRKKERGGVRISSTVPLSIDEATITSVLKEYKIHSADVVIREDITIERLIDALAGNRVYIPSLTVVNKIDLMDVDVADAIKVSAEKGINLDLLKEQIYRKLEFIRVYLKPPGGKVDFSEPMILRRGATVEDICRKLHRDFVENFRYAKVWGKSVKFDGQRVGLEHVVEDGDIITIYAEGHHHHHH, MSLKKIVIVGAGFAGVSATRLLAKNLKNDAEITVIDKHDFQTSMTQLHEVAASRVEADAVQYHLNRTIGKFNNVKVVKESLVELDKANKKVITDKNSYDYDYLVVSMGGEPNDFGVPGVNEYGFTLWSLEDALKIKAHLKEMVQAAAKEADSEKRKKLLTFSVAGSGFTGIEMAGELIDWRKKASKKYGIPESEFTINIVEMMPTIMNILDRSLADKALVYLQNKNINVLVNHGITAVAQDHITVNVGGRDEEKVVKEIPGNTLIWTTGVQGNTEAEACQLSETERGHRLQANEYMEAIGEENHGIYVAGDVSGYIVPENGRPTPQIVEAAEQTGSTAAKNIIADIKGGEKEGHHHHHH, MSLKKLLVIRNDKIGDFMLAWPSFAMLKASLPDCHITALVPKYTAALAELCPWIDAVIIDPGQQADKAQHKQLVQTVKAQQFDASINLFSTMYNALLVWKARIPYRLAPATKLAQIFYQHRIKQKRSQSAKPEYEYNLDLVRAFLRDIGQPIIEPNAPYLTFPAEQLAAQRSKLAEQLDIGPDKAWLFVHAGSGGSANNLSLEQYCELVTGVMDEHKQVVLTAGPGEEEKAAQLQSLLAEQGVLAALYAKNDGLVDFTRSLACAQLFIAGSTGPLHIAAALDVPTVGFFPAKRSATPLRWRPLNSQGKHIAFCPPPADDKANQENMGRIDMKSVLTELAPWLRSVQLEGHHHHHH, MSLKKNIYPNKEGCPVEFTLDVIGGKWKGILFYHMIDGKKRFNEFRRICPSITQRMLTLQLRELEADGIVHREVYHQVPPKVEYSLTEFGRTLEPIVLQMKEWGESNRDVLESYRSNGLVKDQQKEGGSHHHHHH, MSLKKRIFVTGGAEGIGRAIVEAFCKDGHQVAFCDINAVSGQQTARDTGAIFHPVDVSDKEALESCMQQILDEWKDIDIVINNVGISKFSSITETSVEDFDKILSVNLRPVFITSRLLAIHRKAQSDSNPYGRIINICSTRYLMSEPGSEGYAASKGGIYSLTHALALSLSEWNITVNSIAPGWIQTQNYDQLRPEDHSQHPSRRVGKPEDIARMCLFLCRDENDFINGENITIDGGMTKKMIYTEGHHHHHH
